Results on two substances are retold here after paper PMC10703199.

Assay [1] concerns the target sperm immobilization factor (SIF) from Staphylococcus aureus (Staphylococcus aureus).
The target in assay [2] is SIF-binding receptor from Proteus mirabilis (PM-SBR) (Proteus mirabilis). Put plainly: ITC; SIF (500 μg/ml) in the syringe, 10 μl injections into PM-SBR (200 μg/ml) in the vial, PBS as reference, 37°C, stirring 200 rpm, 800 s between injections; micro reaction calorimeter. (In general: ITC needs no label: the signal is the heat of the interaction.)

As for “SIF-binding receptor from Proteus mirabilis (PM-SBR) (natural protein)”, in assay [1], the motility of mouse spermatozoa exposed for 20 seconds to SIF (70 μg) pre-incubated with PM-SBR (10-200 μg): amount of PM-SBR that alleviated the immobilization amounted to 130 µg and the viability of mouse spermatozoa (eosin staining) with SIF (150 μg) pre-incubated with PM-SBR (50-300 μg): minimum effective concentration (MEC) of PM-SBR reducing sperm mortality caused by SIF worked out at 270 µg.
In assay [2], “sperm immobilization factor (SIF) from Staphylococcus aureus (natural protein)” returned a Ka of 1220 M⁻¹ and a dH of 2.29 kcal/mol.
